Laboratory results: publication PMC4137731, “C-Terminal Domain Swapping of SSB Changes the Size of the ssDNA Binding Site”

B1: dT25 (ssDNA)
DNA: TTTTTTTTTTTTTTTTTTTTTTTTT
B2: dT55 (ssDNA)
DNA: TTTTTTTTTTTTTTTTTTTTTTTTTTTTTTTTTTTTTTTTTTTTTTTTTTTTTTT
B3: dT45 (ssDNA)
DNA: TTTTTTTTTTTTTTTTTTTTTTTTTTTTTTTTTTTTTTTTTTTTT
B4: dT60 (ssDNA)
DNA: TTTTTTTTTTTTTTTTTTTTTTTTTTTTTTTTTTTTTTTTTTTTTTTTTTTTTTTTTTTT
B5: dT15 (ssDNA)
DNA: TTTTTTTTTTTTTTT
B6: dT20 (ssDNA)
DNA: TTTTTTTTTTTTTTTTTTTT
B7: dT40 (ssDNA)
DNA: TTTTTTTTTTTTTTTTTTTTTTTTTTTTTTTTTTTTTTTT

Key:
Conditions in all cases: protein: recombinant; tags: none (untagged); chain copies: 4; label: 5' 32P
KpSSBnPaSSBc [1] = molecular target: T1, KpSSBnPaSSBc (Klebsiella pneumoniae subsp. pneumoniae …, UniProt A6TGW7 1-91+P40947:91-165, internal_change); test: EMSA; monomer conc.; 1 complex; 20 mM Tris-HCl pH 8.0, 100 mM NaCl, 25°C 30 min, 1.7 nM DNA, protein 0-5000 nM; native 8% PAGE in TBE at 4°C
KpSSBnStSSBc [2] = molecular target: T2, KpSSBnStSSBc (Klebsiella pneumoniae subsp. pneumoniae …, UniProt A6TGW7 1-91+P0A2F6:92-176, internal_change); test: EMSA; monomer conc.; 2 complexes; 20 mM Tris-HCl pH 8.0, 100 mM NaCl, 25°C 30 min, 1.7 nM DNA, protein 0-5000 nM; native 8% PAGE in TBE at 4°C
KpSSBnPaSSBc [3] = molecular target: T1, KpSSBnPaSSBc; test: as above
KpSSBnStSSBc [4] = molecular target: T2, KpSSBnStSSBc; test: EMSA; monomer conc.; 1 complex; 20 mM Tris-HCl pH 8.0, 100 mM NaCl, 25°C 30 min, 1.7 nM DNA, protein 0-5000 nM; native 8% PAGE in TBE at 4°C
KpSSBnPaSSBc [5] = molecular target: T1, KpSSBnPaSSBc; test: EMSA; no complex observed up to 5000 nM; 20 mM Tris-HCl pH 8.0, 100 mM NaCl, 25°C 30 min, 1.7 nM DNA, protein 0-5000 nM; native 8% PAGE in TBE at 4°C

Binder	apparent K (half saturation) (KpSSBnPaSSBc [1]) [nM]	apparent K (half saturation) (KpSSBnStSSBc [4]) [nM]	other results
B1	390 ± 60	–	–
B2	230 ± 30	–	–
B3	–	–	apparent K (half saturation) (KpSSBnStSSBc [2]): 160 ± 20 nM
B4	–	–	apparent K (half saturation) (KpSSBnPaSSBc [3]): 230 ± 30 nM
B5	–	260 ± 60	–
B6	–	110 ± 20	binding result (KpSSBnPaSSBc [5]): no binding
B7	220 ± 30	120 ± 20	–
